{
  "source": "paper PMC6476560",
  "about": "(PLoS ONE, 2019)",
  "molecules": {"B1": {"name": "fluorescently labelled Dop (deamidase of Pup; depupylase) (enzyme)", "chain": "MQRIIGTEVEYGISSPSDPTANPILTSTQAVLAYAAAAGIQRAKRTRWDYEVESPLRDARGFDLSRSAGPPPVVDADEVGAANMILTNGARLYVDHAHPEYSAPECTDPLDAVIWDKAGERVMEAAARHVASVPGAAKLQLYKNNVDGKGASYGSHENYLMSRQTPFSAIITGLTPFLVSRQVVTGSGRVGIGPSGDEPGFQLSQRSDYIEVEVGLETTLKRGIINTRDEPHADADRYRRLHVIIGDANLAETSTYLKLGTTALVLDLIEEGPAHAIDLTDLALARPVHAVHAISRDPSLRATVALADGRELTGLALQRIYLDRVAKLVDSRDPDPRAADIVETWAHVLDQLERDPMDCAELLDWPAKLRLLDGFRQRENLSWSAPRLHLVDLQYSDVRLDKGLYNRLVARGSMKRLVTEHQVLSAVENPPTDTRAYFRGECLRRFGADIAAASWDSVIFDLGGDSLVRIPTLEPLRGSKAHVGALLDSVDSAVELVEQLTAEPR"}, "B2": {"name": "MtbPupE (prokaryotic ubiquitin-like protein Pup with C-terminal glutamate), free (natural protein)", "chain": "MAQEQTKRGGGGGDDDDIAGSTAAGQERREKLTEETDDLLDEIDDVLEENAEDFVRAYVQKGGE"}},
  "assay_in_all_cases": "MST",
  "key": {"[1]": {"biological_target": "fluorescein-labelled wild-type MtbMpa (Mycobacterium tuberculosis) (UniProt P9WQN5)"}, "[2]": {"biological_target": "fluorescently labelled Dop (deamidase of Pup; depupylase) (UniProt P9WNU9)"}, "[3]": {"biological_target": "T1, Pup-MSMEG_1807 (pupylated alpha-chain of propionyl-CoA carboxylase of M. smegmatis) (Mycobacterium smegmatis | Mycobacterium …, UniProt A0QTE1 1-598; P9WHN5 1-64, PupE (C-terminal glutamine as glutamate))", "T1 construct": "copies: 2 + 1", "settings": "both partners purified"}, "[4]": {"biological_target": "T2, Pup-MSMEG_5049 (pupylated 2-oxoglutarate dehydrogenase E1 of M. smegmatis) (Mycobacterium smegmatis | Mycobacterium …, UniProt A0R2B1;P9WHN5, PupE (C-terminal glutamine as glutamate))", "T2 construct": "copies: 2 + 1", "T2 sequence 1": "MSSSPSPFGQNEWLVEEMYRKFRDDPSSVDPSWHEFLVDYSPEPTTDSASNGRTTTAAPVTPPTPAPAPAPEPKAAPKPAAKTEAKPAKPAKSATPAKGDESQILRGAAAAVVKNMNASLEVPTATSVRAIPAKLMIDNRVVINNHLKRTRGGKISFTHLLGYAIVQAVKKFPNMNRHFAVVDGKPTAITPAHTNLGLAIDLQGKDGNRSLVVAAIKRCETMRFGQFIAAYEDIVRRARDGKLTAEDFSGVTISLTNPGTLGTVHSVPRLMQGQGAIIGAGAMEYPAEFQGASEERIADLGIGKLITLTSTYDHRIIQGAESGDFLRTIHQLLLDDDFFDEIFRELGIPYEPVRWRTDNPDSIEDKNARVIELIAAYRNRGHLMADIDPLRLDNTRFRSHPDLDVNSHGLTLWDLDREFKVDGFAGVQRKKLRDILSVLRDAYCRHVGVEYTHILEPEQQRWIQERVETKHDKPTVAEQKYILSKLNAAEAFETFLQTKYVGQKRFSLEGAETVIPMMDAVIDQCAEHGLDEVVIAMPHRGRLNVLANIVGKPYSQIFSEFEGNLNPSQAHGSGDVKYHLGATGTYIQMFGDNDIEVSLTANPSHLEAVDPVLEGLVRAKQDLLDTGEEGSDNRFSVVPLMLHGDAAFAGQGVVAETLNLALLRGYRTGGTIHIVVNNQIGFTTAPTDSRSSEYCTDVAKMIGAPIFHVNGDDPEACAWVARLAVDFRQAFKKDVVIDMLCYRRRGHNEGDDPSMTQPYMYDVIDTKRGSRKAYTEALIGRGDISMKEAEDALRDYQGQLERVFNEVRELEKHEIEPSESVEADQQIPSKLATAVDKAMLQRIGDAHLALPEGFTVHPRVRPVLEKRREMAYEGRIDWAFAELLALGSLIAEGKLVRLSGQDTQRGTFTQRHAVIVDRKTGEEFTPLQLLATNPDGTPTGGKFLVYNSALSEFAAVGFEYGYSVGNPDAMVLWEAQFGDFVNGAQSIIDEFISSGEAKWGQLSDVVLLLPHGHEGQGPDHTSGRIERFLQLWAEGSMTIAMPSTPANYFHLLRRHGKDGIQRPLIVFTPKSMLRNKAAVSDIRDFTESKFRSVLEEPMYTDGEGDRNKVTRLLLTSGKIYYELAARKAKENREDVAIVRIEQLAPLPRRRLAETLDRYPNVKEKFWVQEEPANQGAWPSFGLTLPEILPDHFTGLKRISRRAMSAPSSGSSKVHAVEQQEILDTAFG", "T2 sequence 2": "B2 chain", "settings": "both partners purified"}, "[5]": {"biological_target": "T3, fluorescein-labelled wild-type MtbMpa (Mycobacterium tuberculosis, UniProt P9WQN5 1-609)", "T3 sequence": "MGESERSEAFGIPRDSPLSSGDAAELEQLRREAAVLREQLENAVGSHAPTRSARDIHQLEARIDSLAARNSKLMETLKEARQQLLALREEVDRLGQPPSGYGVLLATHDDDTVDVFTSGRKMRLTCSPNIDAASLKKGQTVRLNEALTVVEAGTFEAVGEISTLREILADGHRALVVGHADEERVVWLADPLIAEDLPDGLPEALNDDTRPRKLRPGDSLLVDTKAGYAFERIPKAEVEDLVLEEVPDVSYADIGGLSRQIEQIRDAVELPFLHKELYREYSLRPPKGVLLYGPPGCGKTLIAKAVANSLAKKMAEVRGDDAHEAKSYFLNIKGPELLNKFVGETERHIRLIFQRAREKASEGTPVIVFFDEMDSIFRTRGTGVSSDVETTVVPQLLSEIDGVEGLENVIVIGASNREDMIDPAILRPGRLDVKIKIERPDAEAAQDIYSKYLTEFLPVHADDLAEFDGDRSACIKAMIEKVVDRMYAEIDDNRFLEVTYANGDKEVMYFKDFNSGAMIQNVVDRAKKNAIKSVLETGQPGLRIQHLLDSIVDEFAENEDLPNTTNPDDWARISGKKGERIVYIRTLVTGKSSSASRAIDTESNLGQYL", "settings": "both partners purified"}},
  "data": [
    {"molecule": "Pup-FabD3KR (pupylated malonyl transacylase FabD, triple lysine-to-arginine variant) (from UniProt P9WNG5;P9WHN5) (complex)", "values": [
      {"measurement": "Kd", "setting": "[1]", "result": 240, "unit": "nM"}
    ]},
    {"molecule": "Pup-MSMEG_2412 (pupylated pyruvate carboxylase of M. smegmatis) (from UniProt P9WHN5 1-64) (complex)", "values": [
      {"measurement": "Kd", "setting": "[2]", "result": 114, "unit": "nM"}
    ]},
    {"molecule": "B1", "values": [
      {"measurement": "Kd", "setting": "[3]", "result": "339 ± 55", "unit": "nM"},
      {"measurement": "Kd", "setting": "[4]", "result": "121 ± 28", "unit": "nM"}
    ]},
    {"molecule": "B2", "values": [
      {"measurement": "Kd", "setting": "[5]", "result": "3.31 ± 0.65", "unit": "µM"}
    ]}
  ]
}
